Assay results as given in the NTF2 design screens of Basanta et al. (2020).

Assay: protease stability score; higher = more stable; yeast display proteolysis, trypsin and chymotrypsin;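 note: relative to predicted unfolded state with 0 unfolded-like and 1 meaning tenfold more protease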

DEIHEDFDRFLEEYLESLRTGDWKKVEELHDPNTRVDIGDKHVIGMDLLAHLETKDFIKRGARVDMHVRRFEIQGNKIIIHGELRIHYGDKHVRINIHLDIRKINGKWIIRHEEIR
protease stability score: 1.13

DEIHEKVQLAAEIFEEIVRTGDEELFMRYMDPHVRLIDENEIYHGMDIWHKWLHERHEKLGAKHEEVKTRSLDLQGEKLRVEGDFVVNVNGRTFHHRLHLIYRKIDGQWRYEQISLE
protease stability score: 0.853

DEIHKDAHRFVELLLRLLRTGDEDSIEKLMDPHAKININGQERIGREETIELALHWRNDDHHIHDMITINGRVDVHGRVKGEFDGRHQEFTFRLIVLKVNGRWVNESHHYI
protease stability score: 0.83

DEIHKDAKEFTKRFIDSLHTGDWKELLEMFDPHTRIVVGDKEFIGMDEILRFERELGIEKVDYHLKHVEIRVQGEKADIHITGEIRFNGQTVDRELNIHARKIDGRWKVDEVNLDRR
protease stability score: 1.88

DEIHQFIEHMTKLLITALYTGDERMLEELADPHVKLDIGDKHSVGRENFVEMMKWLADHIRVRHTDIHDLKIYGEKTRVDMRVDGEVDGQRVEYRVEIFLFVVDGRLKRSSVHFK
protease stability score: 1.09

DEIKDHVEHASRLLLETYETGDEHTLERLVDPHVKLEVNGQEHVGRETTRWMLEFFKNLKIRIEDVRWQGNKIEIHSILHFNGKDLEMIYFAEKVDGRWVIRSVRTT
protease stability score: 1.38

DEIKESAEEAQRTWVHNSLTGNEEELSRNADPDVRVIIYVNGREIRLIGREFLEELMHRVKNLTIEVDEIRFQGDKIRFNERWTVNGVPRHVDLVMHKFNGKWHIHSINIHVV
protease stability score: 1.15

DEIKKVALKMADLIFELYLTGNEELLRKLADPHMKLIIDGREFHGMHVSHEWILRELKEIRIEDWKIKDVHLQGNKVHIDLRVHGVVDGQREERDVKIHIIVINGRIHSMEMHKE
protease stability score: 2

DEIKRHFDEFIKVLREIIRTGDEEDLVRLMDPNVKLEVGDKRFHGMEVLDVLHKRADHLHEFDIHDWNIQGDKARVDLRLVGQFNGRTVIDNTTLWYEKIDGKWFIKSMRIH
protease stability score: 1.18

DEIKTELEKWLREFIRDMRTGDEDTLRQQADPNMRLDVNGQEIIGWDRILREEIRLRHDLGLTQIHVTVKDHRIQGEKIHNRGEIIYGEFRLDTILIVKKVDGRWRATDMVVV
protease stability score: 1.17

DEILHAWSRALTILLEIWKTGNEEEVEKMFDPNTRLIIGDKILHGREHIEDFVRRVDVADMHEFRVHDSHKYGEKIDIDGHVTGRLVIGDKEVRQETRVRSIIIKVDGKWIIHRLTFI
protease stability score: 0.907

DEINEDLERQARLFYHLWLTGDEEILEKLVDPHVRIILVFNGVPKQDHGREWLMKLFEEIRVEHFEIKTFEIQGEKAIMDTHEIIHVNGKRTRLRVHLWLTMVNGRIKTIEIRFV
protease stability score: 2.13

DEINKMLKEVLDRYTEAIRTGDEDILLELLDPNTRVIINGQDKHGREYWYTWFAELLKRVDHQDVRFHEIRLQGDKVQVDVELIFNAENHHLHIRTDIIIEKFDGRWIITEFRMH
protease stability score: 1.38

DEIQRLMKYVFEEWVKWFLTGDEEKFNKMVDPDVRLIVNGQHSHGREKANEMWEIYYERFDYIHEFRVHSIRIQGDKVHVDVRLIGRQGDKTIDTRTEIHLVIIDGRIKRAEVRVE
protease stability score: 2.62

DEIREEMEKVFRVFIHNMFTGDFEKLEELADPNARSKVDGVDDHGMHKFLRHWLHHVRRYGMKVEFEVHHIDVQGDKVQIDTRIVIDYNGRRFEWKSELIAVKIDGQWLIKRIIIH
protease stability score: 1.6

DEIREESERFARKLVHDWQTGDWRSLLLLMDPNVRLILHFNGVEYRFHGMEIVLEWLKRLIERVDHVFFHVKDIRIQGDKIELRIEEEFRQGDKSRRHDVVLHLVVIDGKIKSISFEVL
protease stability score: 2.7

DEIRKMVEESFEIILHSILTGDEHIEEFLADPHVRILINGVTFHGREEFHKLIEHYLKHWRIKDSKVDHVHAQGEKIEMRVTIHGTVDGQEQTREVIIIAKKVDGRWSMKHVEVR
protease stability score: 2.08

DEITEHTRSLMEVMLRVWETGDWKRFRELADPNVRMNVNGREVHGRDSVAKEIYKMLSDLGVDHSTTHHVDLIGNKAHHDVRMFFNGRETEIRIDIVLINGKVREVNIEIHTR
protease stability score: 2.14

DEITETAERLLRLWVHNFETGNWKKMVDLIDPNARLDVNGRHIHGWEEIAKHLTDELREWRIREIRIRDVKFIDGVNHTHIESDIEYDGRRDRTEMRIIIVVVNGRIKSVKFEIL
protease stability score: 1.2

DEITHEIEHNLKLLLKAWETGDEHLLTEMIDPHDKIHIGDKTIIGRELRLEIEKRLGAKVVEVEIKRIEVQGDKILMHGTIHIEIGDKRFERESRFVAHKFNGRWHQKSLDII
protease stability score: 1.21

DEITRELKHIFEEVIRAILTGDWRRLHHLLDPRVRSKFEFENRHVDLHGMETVLHWMERWSQELRVEDFHLNDFRVIGDYIVLDGRVQNRQGDKKIDVRVELIVFVVNGKVTELRETSR
protease stability score: 1.17

DEITTLFRKILELMEHALKTGDWEIHKRLMDPHTKSNVNGVVAIGREELDKLWKELDKQVDHVEDSHFTEFRIQGDYIRIHVQIRIRVGDKFHDLKVDYHLVIINGVMKSSSVTFH
protease stability score: 0.963

DEIVEMVREIAEEILHAELTGDEDKFKKLIDPNVRLQINGKDIHGMEDFRKWNEEWRIHHIEVKHLDIFEGHSRMDGKLDGTINGQRRNLKTILEIKVVDGRVKEITIHVL
protease stability score: 1.12

DEIYEDIKHIVDLLSHAHETGDEHELKHLADPNVKWIINGVELVGWEDFRKLLEHLRHKRVHMDPRDVKRQGDYIHVTAELRFTGVFNGREREETFEVHLHMKKVNGRWLLTSVRVK
protease stability score: 1.48

DEKDEFNHKIAHQFSESLHTGDFKLLESLFDPNVRSDINGREIIGMEELVHFWEEWKRKFPNAKERYRTESIEHQGEKTISNMRVDLHQGDFHLHREWRVEIHIIDGVVKEVRIENR
protease stability score: 1.23

DEKDEHMENLMREFMHSTLTGDEELLERMADPHVKVIVNGKELIGRESWRKWLEELEKRFKHAKFIWLLHRVDVQGEKANSDGVRRINFDGVNINLKTHIFIHVVNGKLKEIEIHDK
protease stability score: 1.33

DEKDEKLLRFAHEIIELFLTGNEERFTELLDPRVKLDIDGKNAVGREETQRLWEEILHRIDVMHIRIHRYKAQGNKVILDGLIHIEVGDKNEERHSRLHIHVYDGKIKSIRLEYH
protease stability score: 2.08

DEKDELMERIARLMMEYLDTGDEENLNKLADPNVKIDIRIGDKVIDDHGMENLLHRLRHIRSNLRVHNFHAQGDFVKIDTRVTFHVNGQDIHHTVEVRLFIVNGKIHRIEFIFR
protease stability score: 2.6

DEKDKITQDLVKNIIDLFRTGNEDDLRRLADPHVQTHVNGRTIIGMEDASRKIKEILEELGIDHVHWHHVQAQGEKVEIHMEHRVGDKNWELIIRMDLVNGRIKRQEVELR
protease stability score: 0.927

DEKDKMSEVTLKLYIHWFLTGDWKSLFDLVDPHMQVRVGDKKFHGREQAVEEIERLLKRIDHITHIQERSFEIIGNKVHLDGELNVIIDGKRIVKDQIIIAVKIDGKWLLQIDEFE
protease stability score: 1.92

DEKDNVVEHLARRLIEAELTGDWKFLSELIDPNVRVQVGNKKSHGREEYVHIAEEWWIHEQHIRHVEIQGDKVHLEVETDMVVDGRRVRIEIEIHIHIINGRIKEIRINIV
protease stability score: 0.989

DEKDRISKKIVELWMRALITGDEEEMDRMADPDVRIKYGDKVSHGMEEARETWEHIRWRDIRLDHVDSYNGRIRIDGTVHIEINGREDTTRVEIILHVIDGRIKEIRVIIR
protease stability score: 1.3

DEKDRLSEELAKHLYRMMYTGDWERIFKMADPHVRLVIGDKEFHGRENFEETLRDHLEKIKNATMRLDDIELQGDKVHIFFTIHVNGREVEVEVHIRVIDGRIHHVDVQVRWV
protease stability score: 1.49

DEKEDHMRKIALILIKDWLTGNEESLRHMADPNVRVHIHQGNKNIHKHGMEALRELWEEIRIRHFNLERQNVINGVVFIDGRVDGEVDGRRVDTDVEVIIVIVNGRMKLLSRHIE
protease stability score: 1.34

DEKEEAARQIMTWLLEVLLTGDERLFEHNADPNVRIDVDGVDLVGMELFRHEVRRIDHMESRMRVRRVTVQGDKVRMEVEIEVTLFINGKEIRHRRESELIVLKIDGRWIIKSTHVK
protease stability score: 1.56

DEKEEEMEIASELALHVWETGDPDEFLKLADPHVKIDFDGVDIHGMDKEHERWKRVKNLTMHIKRFSYQGDKVHLDVILIVNGRTETIHIIASKVNGRWLIKRVIINRR
protease stability score: 1.37
